For 1 substance, NaCl concentration results are on record in patent EP2078531A2.

Where “and” joins values, the source holds several entries; their conditions need not be identical. Equal entries are not always repeated.

The target of the test is T1, Human recombinant platelet factor-4 (human) (UniProt P02776).
T1 sequence (looked up): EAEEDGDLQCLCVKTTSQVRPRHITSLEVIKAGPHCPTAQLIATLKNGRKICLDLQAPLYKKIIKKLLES
The test is described as follows: PF4-sepharose affinity column, HUVEC conditioned medium.

As for “LOR-1 (from UniProt Q9Y4K0 26-774) (enzyme)”, the NaCl concentration at elution from the PF4 column was 0.4 M NaCl and 0.5 M NaCl.
